# Columns and labels:
# Details in all cases: remark: other sources report otherwise
# [1] = target: T1, recombinant human alpha-synuclein aggregates (ab218819) (human), P37840; experiment: ELISA on AS aggregates; antibody pre-heated 1 hr at 65 °C, measured immediately
# [2] = target: T1, recombinant human alpha-synuclein …; experiment: super-resolution microscopy; Cy3-SynO4 and Alexa Fluor 488-AS aggregates in differentiated SH-SY5Y cells
# [3] = target: T1, recombinant human alpha-synuclein …; experiment: ELISA on AS aggregates; antibody pre-heated 1 hr at 65 °C, stored overnight at 4 °C, measured the next day
# [4] = target: T1, recombinant human alpha-synuclein …; experiment: super-resolution imaging in differentiated SH-SY5Y cells loaded with AS aggregates; SynO4 delivered by TF-liposomes
binder,measurement,setting,value
"SynO4 antibody (Creative Biolabs, USA) (antibody) chain 1: EVQLVESGGGLVQPKGSLKLSCAASGFTFNTYAMHWVRQAPGKGLEWVARIRSKSSNYATYYADSVKDRFTISRDDSQSMLYLQMNNLKTEDTAMYYCVRPLKWYFDVWGTGTTVTVSS chain 2: QIVLTQSPAILSASPGEKVTMTCSASSTVNYMHWYQQKSGTSPKIWIYDTSKLASGVPARFSGSGSWTSYSLTISSMEAEDAATYYCQQWNSNPPTFGAGTKLELK",maximal activity,[1],22%
same,colocalization,[2],75%
same,maximal activity,[3],44%
same,detection between antibody and aggregates,[4],> 80%

# — patent publication US20240269318A1
